This experiment addresses FGFR1 D2-D3 (residues 142-365 of human FGFR1) (human) (UniProt P11362). The experiment can be described thus: calculated from the X-ray crystal structure.

Sequence of FGFR1 D2-D3 (residues 142-365 of human FGFR1) (human) (P11362 149-359 limits assumed): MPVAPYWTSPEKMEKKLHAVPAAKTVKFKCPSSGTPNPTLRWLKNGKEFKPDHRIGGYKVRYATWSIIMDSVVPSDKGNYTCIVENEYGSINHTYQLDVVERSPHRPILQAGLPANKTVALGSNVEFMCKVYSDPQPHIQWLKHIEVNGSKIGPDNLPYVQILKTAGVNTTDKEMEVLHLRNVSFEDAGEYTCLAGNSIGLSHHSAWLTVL

Regarding “FGF1 (from UniProt P05230 21-155) (ligand)”, the total accessible surface area buried in the complex was 2200 Å^2.

Values taken from patent US7129072.
